T1: flag-tagged soluble TL3 (amino acids 105-251 of SEQ ID NO:234) (Homo sapiens (Human), UniProt O75888 105-250)
T1 construct: Heterologous flag-tagged control protein, immobilized in the ELISA; also called flagged tagged TL-3; not shown: Flag tag
T1 sequence: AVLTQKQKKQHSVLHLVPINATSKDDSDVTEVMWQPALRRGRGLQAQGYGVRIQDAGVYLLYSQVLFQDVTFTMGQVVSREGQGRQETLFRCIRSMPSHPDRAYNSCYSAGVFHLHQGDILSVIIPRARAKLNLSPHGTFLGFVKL


What follows are binders tested against T1, flag-tagged soluble TL3 (amino acids …) (assay: phage ELISA on immobilized flag-tagged soluble TL3).
Procedure: The individual phage isolates in the panel of phage, each phage expressing a unique scFv that bound to flag-tagged GMAD, were tested to ensure specificity for GMAD using an ELISA assay. The scFvs were tested in an ELISA for their ability to bind a heterologous flag-tagged protein, in this case—immobilized soluble TL3 (amino acids 105-251 of SEQ ID NO:234, GenBank Accesion Number NP_{—}003799, also described in International Patent Application Publication Number WO97/33902 and WO2001/96528 which are herein incorporated by reference in their entireties).

binding result | Binder
no binding | GMBC621 (scFv) scFv: EVQLVQSGGGVVQPGRSLRLSCAASGFTFSSYGMHWVRQAPGKGLEWVAVISYDGSNKYYADSVKGRFTISRDNSKNTLYLQMDSLRAEDTAVYFCAKRGLWTPIDYWGKGTLVTVSSGGGGSGGGGSGGGGSSELTQDPAVSVALGQTVRITCQGDSLRSYYASWYQQKPGQAPVLVIYGKNNRPSGIPDRFSGSNSGNTASLTITGAQAEDEADYYCNSRDSSGNHVVFGGGTKLTVLG
no binding | GMBC604 (scFv) scFv: EVQLVQSGAEVKKPGESLRISCKGSGYTFTNYWINWVRQVPGKGLEWMGMIDPTDSYAKYSPSFQGHVTISTDKSVSTAYLQWRSLQASDSAIYYCVRGYSYDLDYWGKGTLVTVSSGGGGSGGGGSGGGGSQSVLTQPASVSGSPGQSITISCTGTSSDVGGYNYVSWYQQHPGKAPKLMIYEGSKRPSGVSNRFSGSKSGNTASLTISGLQAEDEADYYCSSYTTRSTRVFGGGTKLTVLG
no binding | GMBC667 (scFv) scFv: QVQLQESGGGLVKPGGSLRLSCAGSGFPFSDAWMNWVRQAPGKGLEWVGRIKSKGSGGTIDYAAPVKDRFRISRDDSKNTLYLQMNSLNIEDTALYYCTWDWDFYYGMNVWGQGTTVTVSSGGGGSGGGGSGGGGSQSVLTQPASVSGSPGQSITISCTGTSSDVGGYNYVSWYQQHPGKAPKLMIYEGSKRPSGVSNRFSGSKSGNTASLTISGLQAEDEADYYCSSYTTRSTRVFGGGTKLTVLG
no binding | GMBC670 (scFv) scFv: EVQLVETGGGLVKPGGSLRLSCVASGFTFSDAWMNWVRQAPGKGLEWVGRIKSKGSGGTIDYAAPVKDRFIISRDDSKNTLYLQVNSLKTEDTALYYCTWDWDFYYGMNVWGQGTLVTVSSGGGGSGGGGSGGGGSQSVLTQPASVSGSPGQSITISCTGTSSDVGGYNYVSWYQQHPGKAPKLMIYEGSKRPSGVSNRFSGSKSGNTASLTISGLQAEDEADYYCSSYTTRSTRVFGGGTKLTVLG
no binding | GMBC727 (scFv) scFv: EVQLVESGGDTVKPGGSLRLSCAGSGFTFSDAWMNWVRQAPGKGLEWVGRMKSKGSGGTRDYAAPVNGRFTISRDDSKNTLYLQMNSLNTEDTGVYYCTWDWDFYYGMNVWGRGTLVTVSSGGGGSGGGGSGGGGSQSVLTQPASVSGSPGQSITISCTGTSSDVGGYNYVSWYQQHPGKAPKLMIYEGSKRPSGVSNRFSGSKSGNTASLTISGLQAEDEADYYCSSYTTRSTRVFGGGTKLTVLG
no binding | GMBC684 (scFv) scFv: QVQLVQSGGGLVKPGGSLRLSCAASGFKFSDAWMNWVRQAPGKGLEWVGRIKSKGSGGTIDYAAPVKDRFTISRDDSKNTLYLQMNSLKTEDTALYYCTWDWDFYYGMNVWGQGTPVTVSSGGGGSGGGGSGGGGSQSALTQPASVSGSPGQSITISCTGTSSDVGGYNYVSWYQQHPGKAPKLMIYEGSKRPSGVSNRFSGSKSGNTASLTISGLQAEDEADYYCSSYTTRSTRVFGGGTKLTVLG
no binding | GMBC686 (scFv) scFv: EVQLVQSGGGLVKPGGSLRLSCAASGFTFSDAWMNWVRQAPGKGLEWVGRIKSKGSGGTIDYAAPVKDRFTISRDDSKNTLYLQMNSLKTEDTALYYCTWDWDFYYGMNVWGQGTTVTVSSGGGGSGGGGSGGGGSQSVLTQPASVSGSPGQSITISCTGTSSDVGGYNYVSWYQQHPGKAPKLMIYEGSKRPSGVSNRFSGSKSGNTASLTISGLQAEDEADYYCSSYTTRSTRVFGGGTKLTVLG
no binding | GMBC679 (scFv) scFv: QVQLVESGGGLVKPGGSLRLSCAASGFTFSDAWMNWVRQAPGKGLEWVGRIKSKGSGGTTDYAAPVKDRFTISRDDSENTLYLQMNSLKTEDTAVYYCTWDHSYYYDMAVWGRGTLVTVSSGGGGSGGGGSGGGGSQSVLTQPASVSGSPGQSITISCTGTSSDVGGYNYVSWYQQHPGKAPKLVIYEGSKRPSGVSNRFSGSKSGNTASLTISGLQAEDEADYYCSSYTTRSTRVFGGGTKLTVLG
no binding | GMBC693 (scFv) scFv: QVQLVESGGGLVKPGGSLRLSCAASGFTFSDAWMNWVRQAPGKGLEWVGRIKSKGSGGTIDYAAPVKDRFTISRDDSKNTLYLQMNSLKTEDTALYYCTWDWDFYYGMNVWGKGTLVTVSSGGGGSGGGGSGGGGSQSVLTQPASVSGSPGQSITISCTGTSSDVGGYNYVSWYQQHPGKAPKLMIYEGSKRPSGVSNRFSGSKSGDTASLTISGLQAEDEADYYCSSYTTRSTRVFGGGTKLTVLG
no binding | GMBC690 (scFv) scFv: EVQLVQSGGGVVQPGRSLRLSCAASGFTFSDAWMNWVRQAPGKGLEWVGRIKSKGSGGTIDYAAPVKDRFTISRDDSKNTLYLQMNSLKTEDTALYYCTWDWDFYYGMNVWGRGTLVTVSSGGGGSGGGGSGGGGSQSVLTQPASVSGSPGQSITISCTGTSSDVGGYIYVSWYQQHPGRAPKLMIYEGSKRPSGVSNRFSGSKSGNTASLTISGLQAEDEADYYCSSYTTRSTRVFGGGTKLTVLG
no binding | GMBC672 (scFv) scFv: QVQLVQSGGGLVKPGGSLRLSCAASGFTFSDAWMNWVRQAPGKGLEWVGRIKSKGSGGTIDYAAPVKDRFTISRDDSKNTLYLQMNSLKTEDTALYYCTWDWDFYYGMNVWGQGTLVTVSSGGGGSGGGGSGGGGSQSVLTQPASVSGSPGQSITISCTGTSSDVGGYNYVSWYQQHPGKAPKLMIYEGSKRPSGVSNRFSGSKSGNTASLTISGLQAEDEADYYCSSYTTRSTRVFGEGTKLTVLG
no binding | GMBC676 (scFv) scFv: EVQLVQSGGGLVQPGGSLRLSCAASGFTFSHAWMNWVRQAPGKGLEWVGRIKSKASGGTIDYAAPVKDRFTISRDDSKNTLYLHMNSLKTEDTALYYCTWDWDFYYGMNVWGRGTMVTVSSGGGGSGGGGSGGGGSQSVLTQPASVSGSPGQPITISCTGTSSDVGGYNYVSWYQQHPGKAPKLMIYEGSKRPSGVSNRFSGSKSGNTASLTISGLQAEDEADYYCSSYTTRSTRVFGGGTKLTVLG
no binding | GMBC638 (scFv) scFv: QVQLVQSGGGLVKPGESLRLSCEASGFEFNYAWMSWVRQAPGKGLEWVGRSRSVASGGTTDYAAPLQDRFTISRDDSKNTLYLQVNSLKIEDTGVYFCKWEKSEYYGMDVWGRGTMVTVSSGGGGSGGGGSGGGGSQSVLTQPASVSGSPGQSITISCTGTSSDVGGYNYVSWYQQHPGKAPKLMIYEGSKRPSGVSNRFSGSKSGNTASLTISGLQAEDEADYYCSSYTTRSTRVFGGGTKLTVLG
no binding | GMBC626 (scFv) scFv: EVQLVQSGGGLVKPGESLRLSCEASGFEFNYAWMSWVRQAPGKGLEWVGRSRSEASGGTTDYAAPLQDRFTISRDDSKNTLYLQVNSLKIEDTGVYFCKWEKSEYYGMDVWGRGTPVTVSSGGGGSGGGGSGGGGSQSVLTQPASVSGSPGQSITISCTGTSSDVGGYNYVSWYQQHPGKAPKLMIYEGSKRPSGVSNRFSGSKSGNTASLTISGLRAEDEADYYCSSYTTKSTQVFGGGTKLTVLG
no binding | GMBC659 (scFv) scFv: QVQLVESGGGLVKPGESLRLSCEASGFEFNYAWMSWVRQAPGKGLEWVGRSRSEASGGTTDYAAPLQDRFTISRDDSKNTLYLQVNSLKIEDTGVYFCKWEKSEYYGMDVWGRGTLVTVSSGGGGSGGGGSGGGGSQSVLTQPASVSGSPGQSITISCTGTSSDVGGYNYVSWYQQHPGKAPKLMIYEGSKRPSGVSNRFSGSKSGNTASLTISGLQAEDEADYYCSSYTTRSTRVFGGGTKLTVLG
no binding | GMBC627 (scFv) scFv: GVQLVQSGGEVKKPGASVRVSCKASRYIFSNYGFSWVRQAPGQGLEWMGSIRNDKGSTNYAQGFQDRLTMTTDTSTNTVFMELRSLSSDDTAVYYCASAPYYYGMGIWGKGTLVTVSSGGGGSGGGGSGGGGSQSVLTQPASVSGSSGQSITISCTGTSSDVGGYNYVSWYQQHPGKAPKLMIYEVGNRPSGVSNRFSGSKSGNTASLTISGLQAEDEADYYCSSYTTRSTRVFGGGTKLTVLG
no binding | GMBC619 (scFv) scFv: EVQLVESGGGVVQPGRSLRLSCAASGFTFRSYGMHWVRQAPGKGLEWVAVITYDGSNKYYADSVKGRFTISRDNSKNTLYLQMNSLRADDTAVYYCARDGGGWYHPRLDYWGQGTMVTVSSGGGGSGGGGSGGGGSSELTQDPAVSVALGQTVRITCQGDSLRSYYASWYQQKPGQAPVLVIYGKNNRPSGIPDRFSGSSSGNTASLTITGAQAEDEADYYCNSRDSSGNHVVFGGGTKLTVLG
no binding | GMBC618 (scFv) scFv: EVQLVQSGGGLVKPGGSLRLSCAASGFKFDDAWMNWVRQAPGKGLEWVGRIKSKRSGGTIDYAAPVKDRFTISRDDSKNTLYLQMNSLRTEDTALYYCTWDWDFYYGMNVWGRGTLVTVSSGGGGSGGGGSGGGGSQSVLTQPPSASGTPGQRVTISCSGSSSNIGSNTVNWYQRLPGAAPQLLIYNNDQRPSGIPDRFSGSKSGTSGSLVISGLQSEDEADYYCASWDDSLNGRVFGGGTKLTVLG
no binding | GMBC617 (scFv) scFv: EVQLVETGGGLVQPGGSLRLSCAASGFTVSSNYMSWVRQAPGKGLEWVSVIYSGGSTYYADSVKGRFTISRHNSKNTLYLQMNSLRAEDTAVYYCARGLWFGELLYWGQGTLVTVSSGGGGSGGGGSGGGGSQSALTQPASVSGSRGQSITISCTGTTGDVGGYDYVSWYQQHPGKAPKLLIYGNSNRPSGVPDRFSASKSGNTASLTISGLQAEDEADYFCSTYAPPGIIMFGGGTKLTVLG

Reference: patent US20050069542A1 (Human Genome Sciences, published 2005)
